# Reference: paper PMC4078514 (2014)
# No end group written: not given here.
# B1: [99mTc(CO)3(15)] BBS-scrambled shepherdin(79-83) conjugate (peptide)
# chain: QWAVGHL
# modifications: not fully specified (C-terminus); also: (βAla)3 spacer, triazole-Lys 99mTc(CO)3 chelate, succinyl-linked scrambled shepherdin SGKHS
# B2: [99mTc(CO)3(16)] BBS reference conjugate (peptide)
# chain: QWAVGHL
# modifications: not fully specified (N-terminus, C-terminus); also: triazole 99mTc(CO)3 chelate, methyl group in place of shepherdin
# B3: [99mTc(CO)3(14)] BBS-shepherdin(79-83) conjugate (peptide)
# chain: QWAVGHL
# modifications: not fully specified (C-terminus); also: (βAla)3 spacer, triazole-Lys 99mTc(CO)3 chelate, succinyl-linked shepherdin KHSSG
# Target: gastrin-releasing peptide receptor (GRP-r) (Homo sapiens, UniProt P30550)
# Assay: radioligand saturation binding on PC-3 cells
# Chain of gastrin-releasing peptide receptor (GRP-r) (P30550 whole entry): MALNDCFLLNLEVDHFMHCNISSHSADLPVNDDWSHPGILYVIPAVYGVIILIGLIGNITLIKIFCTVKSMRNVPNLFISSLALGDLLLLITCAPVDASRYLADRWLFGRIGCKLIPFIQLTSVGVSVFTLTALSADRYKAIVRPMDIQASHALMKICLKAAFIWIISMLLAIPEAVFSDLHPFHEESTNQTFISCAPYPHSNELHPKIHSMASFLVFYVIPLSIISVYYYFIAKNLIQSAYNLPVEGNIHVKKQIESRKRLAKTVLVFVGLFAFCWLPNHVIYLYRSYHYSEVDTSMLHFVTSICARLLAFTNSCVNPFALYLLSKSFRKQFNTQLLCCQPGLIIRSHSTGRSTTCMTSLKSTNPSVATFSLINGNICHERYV
binder,measurement,value
B1,Kd,11.3 nM
B2,Kd,5.6 nM
B3,Kd,10.9 nM
